Measurements reported in patent US20250026850A1 (TRISHULA THERAPEUTICS, published 2025).
Numbering of substitutions follows the chain as printed.

T1: rhCD39-ECD-His (R&D Systems) (human, UniProt P49961 38-478)
T1 construct: Bought protein; that entry runs on through the C-terminal transmembrane and cytoplasmic residues; also called recombinant human CD39 extracellular domain; soluble recombinant human CD39 (ENTDP1) ECD; not shown: His tag
T1 sequence: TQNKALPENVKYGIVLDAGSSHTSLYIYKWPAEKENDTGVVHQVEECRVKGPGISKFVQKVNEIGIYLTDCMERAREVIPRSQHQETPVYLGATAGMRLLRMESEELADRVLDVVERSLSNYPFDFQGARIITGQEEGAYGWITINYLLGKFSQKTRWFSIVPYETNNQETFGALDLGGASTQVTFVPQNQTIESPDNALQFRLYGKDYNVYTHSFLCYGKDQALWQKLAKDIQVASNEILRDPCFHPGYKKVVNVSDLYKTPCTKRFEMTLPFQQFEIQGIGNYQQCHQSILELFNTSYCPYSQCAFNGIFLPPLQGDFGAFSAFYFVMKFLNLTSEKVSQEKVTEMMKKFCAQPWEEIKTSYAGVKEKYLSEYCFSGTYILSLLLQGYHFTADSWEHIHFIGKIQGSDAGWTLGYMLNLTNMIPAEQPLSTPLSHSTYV

T2: cynomolgus macaque (Macaca fascicularis) CD39 on cells (cynomolgus macaque (Macaca fascicularis), UniProt P49961 7-510 (human entry))
T2 construct: CHO cells engineered to express cyno CD39, or primary cyno B cells and monocytes; also called cyno CD39; cCD39
T2 chain: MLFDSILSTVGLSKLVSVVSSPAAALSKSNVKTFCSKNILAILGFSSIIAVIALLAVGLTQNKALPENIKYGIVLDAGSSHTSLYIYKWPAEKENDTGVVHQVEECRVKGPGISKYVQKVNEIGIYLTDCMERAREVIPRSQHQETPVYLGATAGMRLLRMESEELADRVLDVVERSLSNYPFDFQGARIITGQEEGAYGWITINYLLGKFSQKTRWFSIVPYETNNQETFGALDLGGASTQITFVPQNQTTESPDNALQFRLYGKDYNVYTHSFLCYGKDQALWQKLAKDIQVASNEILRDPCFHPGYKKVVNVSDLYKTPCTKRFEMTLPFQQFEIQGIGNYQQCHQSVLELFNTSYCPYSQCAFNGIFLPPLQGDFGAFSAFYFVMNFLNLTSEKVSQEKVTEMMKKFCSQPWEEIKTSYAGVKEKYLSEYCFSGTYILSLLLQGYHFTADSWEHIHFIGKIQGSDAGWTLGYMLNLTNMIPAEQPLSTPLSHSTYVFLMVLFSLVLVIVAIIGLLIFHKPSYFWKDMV

T3: human CD39 on cells (human, UniProt P49961 1-510)
T3 construct: One molecule for all cells that carry human CD39; the cell is named under assay; also called hCD39; cellular CD39
T3 sequence: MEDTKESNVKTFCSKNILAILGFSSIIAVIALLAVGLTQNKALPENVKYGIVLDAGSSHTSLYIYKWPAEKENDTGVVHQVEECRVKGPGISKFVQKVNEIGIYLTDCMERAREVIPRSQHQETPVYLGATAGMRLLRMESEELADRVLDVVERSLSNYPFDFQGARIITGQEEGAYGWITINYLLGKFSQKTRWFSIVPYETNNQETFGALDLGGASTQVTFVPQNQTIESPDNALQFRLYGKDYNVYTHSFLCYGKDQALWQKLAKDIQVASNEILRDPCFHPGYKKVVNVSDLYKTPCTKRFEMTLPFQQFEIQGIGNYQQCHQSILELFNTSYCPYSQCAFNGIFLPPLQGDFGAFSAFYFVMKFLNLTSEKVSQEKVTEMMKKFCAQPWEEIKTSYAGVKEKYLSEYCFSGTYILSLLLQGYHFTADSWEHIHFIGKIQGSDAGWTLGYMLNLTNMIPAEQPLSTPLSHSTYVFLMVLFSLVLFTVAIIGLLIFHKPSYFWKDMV

B1: 31896 (antibody, V domains shown)
VH: QVQLVQSGAEVKKPGSSVKVSCKASGGTFSKLAISWVRQAPGQGLEWMGGIGFGTANYAQKFQGRVTITADESASTAYMELSSLRSEDTAVYYCARGGAKYASTHGMDVWGQGTTVTVSS
VL: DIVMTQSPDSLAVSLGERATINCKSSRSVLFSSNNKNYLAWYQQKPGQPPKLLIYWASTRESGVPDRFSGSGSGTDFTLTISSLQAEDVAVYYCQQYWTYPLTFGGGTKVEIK
B2: 31915 (antibody, V domains shown)
VH: B1 VH with K31S, A33P, A74T, T104K, H105W
VL: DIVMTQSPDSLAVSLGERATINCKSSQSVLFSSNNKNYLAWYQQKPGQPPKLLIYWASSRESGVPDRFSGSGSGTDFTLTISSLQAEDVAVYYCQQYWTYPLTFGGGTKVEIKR
B3: 27577 (antibody, V domains shown)
VH: QVQLVQSGAEVKKPGSSVKVSCKASGGAFSSYAIGWVRQAPGQGLEWMGGIIPTFGTANYAQKFQGRVTITADESTSTAYMELSSLRSEDTAVYYCARDGGGYQHHYFDLWGRGTLVTVSS
VL: EIVMTQSPATLSVSPGERATLSCRASQSVGSNLAWYQQKPGQAPRLLIYGASTRATGIPARFSGSGSGTEFTLTISSLQSEDFAVYYCQQLTKWPLTFGGGTKVEIKR
B4: 27550 (antibody, V domains shown)
VH: EVQLVESGGGLVKPGGSLRLSCAASGFTFSSYSMNWVRQAPGKGLEWVSSISSSSSYIYYADSVKGRFTISRDNAKNSLYLQMNSLRAEDTAVYYCARERRGSLALGMDVWGQGTLVTVSS
VL: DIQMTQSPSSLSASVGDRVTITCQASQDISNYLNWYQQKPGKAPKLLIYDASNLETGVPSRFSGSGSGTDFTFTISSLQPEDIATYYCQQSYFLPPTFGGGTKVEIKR
B5: 29871 (antibody, V domains shown)
VH: QVQLVQSGAEVKKPGASVKVSCKASGYTFQSYYMHWVRQAPGQGLEWMGKINPSGGSTWYAQKFQGRVTMTRDTSTSTVYMELSSLRSEDTAVYYCARGKREGGTEYLRHWGQGTLVTVSS
VL: EIVLTQSPGTLSLSPGERATLSCRASQSVSSSYLAWYQQKPGQAPRLLIYGASSRATGIPDRFSGSGSGTDFTLTISRLEPEDFAVYYCQQYHSYITFGGGTKVEIK
B6: 31421 (antibody, V domains shown)
VH: B5 VH with Q30F, H35Y, K50V, S54L, S57G, W59S
VL: B5 VL with R24K, Q27E, G51Y, S94R, Y95R
B7: 27588 (antibody, V domains shown)
VH: QVQLVQSGAEVKKPGSSVKVSCKASGGTFSNYAISWVRQAPGQGLEWMGGIIPIFGTANYAQKFQGRVTITADESTSTAYMELSSLRSEDTAVYYCARAKRGYDSYGGVYFDYWGQGTLVTVSS
VL: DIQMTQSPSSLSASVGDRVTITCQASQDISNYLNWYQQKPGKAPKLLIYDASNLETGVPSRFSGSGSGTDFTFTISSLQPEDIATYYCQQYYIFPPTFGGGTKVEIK
B8: 27587 (antibody, V domains shown)
VH: QVQLVQSGAEVKKPGSSVKVSCKASGGTFSSYAISWVRQAPGQGLEWMGSIIPIFGTANYAQKFQGRVTITADESTSTAYMELSSLRSEDTAVYYCARESGGYRDHKLDVWGQGTMVTVSS
VL: EIVLTQSPATLSLSPGERATLSCRASQSVSSYLAWYQQKPGQAPRLLIYDASKRATGIPARFSGSGSGTDFTLTISSLEPEDFAVYYCQQDVLWPLTFGGGTKVEIKR
B9: 27571 (antibody, V domains shown)
VH: B8 VH with V20A, Q65R, A79T, K107R
VL: EIVMTQSPATLSVSPGERATLSCRASQSVGSNLAWYQQKPGQAPRLLIYGASTRATGIPARFSGSGSGTEFTLTISSLQSEDFAVYYCQQYLIWPLTFGGGTKVEIK

biological target: T1, rhCD39-ECD-His (R&D Systems); experiment: BLI (Octet), IgG on anti-human Fc sensor, rhCD39-ECD-His 10-300 nM, 1:1 fit
Method: The kinetic data was globally fit with a simple 1:1 Langmuir binding model to yield on-rate (kon) and off-rate (koff) values. The equilibrium dissociation constants (KD) were calculated from the kon and koff values.
Binding kinetics were measured using the Octet Red96 system (ForteBio) at 25° C. in running buffer (1× Pall ForteBio Kinetics Buffer diluted into PBS or Tris pH 7.4). […] After a short baseline step in running buffer, the sensors were exposed to varying concentrations (10-300 nM) of rhCD39-ECD-His (R&D Systems) for the association step. Dissociation of the complex was monitored upon exposure of the sensors to running buffer once again. Data was processed using ForteBio Octet software with baseline subtraction, global fit and 1:1 binding model to obtain association and dissociation rates. KD was calculated from the ratio of kd to kₐ.

Row | Kd [µM] | koff [s⁻¹] | kon [M⁻¹ s⁻¹] | Binder
1 | 0.00905 | 0.00815 | 901000 | B1
2 | 0.000811 | 0.000286 | 353000 | B2
3 | 0.409 | 0.365 | 893000 | B3
4 | 0.143 | 0.0633 | 444000 | B4
5 | 0.244 | 0.0666 | 273000 | B5
6 | 0.0188 | 0.00526 | 281000 | B6
7 | 0.0549 | 0.00644 | 117000 | B7
8 | 0.0337 | 0.00711 | 211000 | B8
9 | 0.0164 | 0.0105 | 639000 | B9

Biological target: T2, cynomolgus macaque (Macaca …)
Experiment: flow cytometry, 100 nM IgG, cCD39-CHO cells; MFI ratio to parental CHO
Method: (§1) 100 nanomolar IgGs (each antibody is indicated as a unique clone number in the FIG.) were incubated at […] 30 minutes on ice in phosphate buffered saline (PBS) with parental CHO cells or CHO cells engineered to express either human or cynomolgus macaque (Macaca fascicularis) CD39 (CHO CD39 cells). Cells were then washed with ice cold PBS and incubated with a fluorescently labeled goat-anti-human IgG for 20 minutes on ice. Cells were washed and resuspended in ice cold PBS prior to analysis by flow cytrometry.

Row | Cell Binding (FOB) | Binder
10 | 4540 | B1
11 | 4580 | B2
12 | 339 | B3
13 | 2870 | B4
14 | 3350 | B5
15 | 3050 | B6
16 | 14 | B7
17 | 1400 | B8
18 | 1610 | B9

biological target: T3, human CD39 on cells; experiment: flow cytometry, 100 nM IgG, hCD39-CHO cells; MFI ratio to parental CHO
Method: as §1

Row | Cell Binding (FOB) | Binder
19 | 1040 | B1
20 | 1090 | B2
21 | 390 | B3
22 | 2030 | B4
23 | 451 | B5
24 | 1080 | B6
25 | 10 | B7
26 | 1450 | B8
27 | 1400 | B9
